Reference: the supplement of paper PMC7125110
± gives the standard error. Fewer inactive variants are shown than the library holds.

B1: glmS ribozyme (parent)
chain: AUAAAAGCGCCAGAACUACAGAAAUGUAGUUGACGAGGAGGAGGUUUAUCGAAUUUUCGGCGGAUGCCUCCAAA

Tests used:
Conditions in all cases: with glucosamine-6-phosphate
glucosamine-6-phosphate [1] = variants of: B1; assay: self-cleavage kobs at 40 uM GlcN6P; higher = faster cleavage; RNA array
Method in brief: (§1)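 kcat and KM were obtained from weighted Michaelis–Menten fits across concentrations of kobs values. Those came from one- or two-exponential decay fits to per-tile medians normalised to baseline and to non-cleaving reference variants. The variants were barcoded ribozymes transcribed in situ by E. coli RNA polymerase on sequenced MiSeq chips and tracked through a hybridised Cy3 probe at 37 °C, with 40 μM to 10 mM glucosamine-6-phosphate in HEPES/KCl/Mg(OAc)2 buffer flowed in.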

glucosamine-6-phosphate [2] = variants of: B1; assay: self-cleavage kobs at 160 uM GlcN6P; higher = faster cleavage; RNA array
Method in brief: as §1

glucosamine-6-phosphate [3] = variants of: B1; assay: self-cleavage kobs at 640 uM GlcN6P; higher = faster cleavage; RNA array
Method in brief: as §1

glucosamine-6-phosphate [4] = variants of: B1; assay: self-cleavage kobs at 2500 uM GlcN6P; higher = faster cleavage; RNA array
Method in brief: as §1

glucosamine-6-phosphate [5] = variants of: B1; assay: self-cleavage kobs at 10000 uM GlcN6P; higher = faster cleavage; RNA array
Method in brief: as §1

Variant	self-cleavage kobs at 40 uM GlcN6P (glucosamine-6-phosphate [1]) [s⁻¹]	self-cleavage kobs at 160 uM GlcN6P (glucosamine-6-phosphate [2]) [s⁻¹]	self-cleavage kobs at 640 uM GlcN6P (glucosamine-6-phosphate [3]) [s⁻¹]	self-cleavage kobs at 2500 uM GlcN6P (glucosamine-6-phosphate [4]) [s⁻¹]	self-cleavage kobs at 10000 uM GlcN6P (glucosamine-6-phosphate [5]) [s⁻¹]
C34U A52C	< 1e-05	< 1e-05	< 1e-05	< 1e-05	< 1e-05
G35C G41U	< 1e-05	< 1e-05	< 1e-05	< 1e-05	< 1e-05
A12G G60A	< 1e-05	< 1e-05		< 1e-05	< 1e-05
G13U A39C G44A	< 1e-05				< 1e-05
G60U G62A	< 1e-05	< 1e-05	< 1e-05		
A36U C50G	6.51e-05 ± 1.4e-05	8.01e-05 ± 1.4e-05	2.94e-05 ± 1.3e-05	0.000455 ± 0.00018	
A15G U30A U31G G41U	0.00015 ± 5.1e-05				0.000456 ± 0.00017
G35U	< 1e-05	< 1e-05	< 1e-05	< 1e-05	< 1e-05
A42C G62C	< 1e-05	< 1e-05			< 1e-05
A33G C34U	< 1e-05			< 1e-05	
A12C C16G	8.16e-05 ± 1.1e-05	0.000158 ± 3.6e-05	0.00067 ± 0.00012	0.00161 ± 0.00035	0.00517 ± 0.00083
G9A C11U	< 1e-05	< 1e-05	< 1e-05	< 1e-05	< 1e-05
C10U A52C	< 1e-05				< 1e-05
G35A A36C	< 1e-05	< 1e-05	< 1e-05	< 1e-05	
A36U U69G C71U	0.000104 ± 4.8e-05				
C11U A42C	< 1e-05	< 1e-05	< 1e-05	< 1e-05	< 1e-05
C34U C68G	0.000563 ± 0.00025		0.00228 ± 0.0011		0.000463 ± 0.00015
U55C G63A	< 1e-05	< 1e-05		< 1e-05	< 1e-05
A6C C10G G41A U49G G60A	< 1e-05				
G38A G41U U46C	< 1e-05				< 1e-05
G13C A52C G62U	< 1e-05				< 1e-05
G7C A39G	< 1e-05	< 1e-05	< 1e-05	< 1e-05	< 1e-05

Variant	self-cleavage kobs at 40 uM GlcN6P (glucosamine-6-phosphate [1]) [s⁻¹]	self-cleavage kobs at 160 uM GlcN6P (glucosamine-6-phosphate [2]) [s⁻¹]	self-cleavage kobs at 640 uM GlcN6P (glucosamine-6-phosphate [3]) [s⁻¹]	self-cleavage kobs at 2500 uM GlcN6P (glucosamine-6-phosphate [4]) [s⁻¹]	self-cleavage kobs at 10000 uM GlcN6P (glucosamine-6-phosphate [5]) [s⁻¹]
G7U C16G A36C A42C A52G	< 1e-05				
C8U C10A G40C C67A	< 1e-05				
G29U G62C	< 1e-05		< 1e-05	< 1e-05	< 1e-05
G35C C61U G62A	< 1e-05				< 1e-05
A6G A15C G35A	< 1e-05				< 1e-05
G7U A14C U56G	< 1e-05	< 1e-05	< 1e-05	< 1e-05	< 1e-05
A53C G59A	< 1e-05		< 1e-05		
G13C A52U	< 1e-05	< 1e-05	< 1e-05		< 1e-05
U47C U57G	< 1e-05				
C50G U54G G60A C70G	< 1e-05		< 1e-05		
G7C U45G	< 1e-05	< 1e-05	< 1e-05	< 1e-05	< 1e-05
C11U A14G A15G	0.000235 ± 5.3e-05				0.0112 ± 0.0025
A14G U31G G40A C71A	5.41e-05 ± 1.8e-05				0.000822 ± 0.00016
G29C G41U A48G U49C G60C	< 1e-05				< 1e-05
A33C C67G	< 1e-05	< 1e-05			< 1e-05
C11A G44U U54C	< 1e-05			< 1e-05	
G59C C70U	< 1e-05		< 1e-05		
G29U G38U U55G	< 1e-05			< 1e-05	< 1e-05
G43A G62A	< 1e-05	< 1e-05		< 1e-05	< 1e-05
G9U C34U	< 1e-05		< 1e-05	< 1e-05	< 1e-05
U31A A36G	< 1e-05	< 1e-05	< 1e-05		
